According to PMC9363427, “The SWI/SNF chromatin remodeling factor DPF3 regulates metastasis of ccRCC by modulating TGF-β signaling” (Nature Communications, 2022):

B2: Recombinant full-length DPF3a, GST tag removed (natural protein, human, UniProt Q92784-2 1-357, looked up)
chain: MATVIHNPLKALGDQFYKEAIEHCRSYNSRLCAERSVRLPFLDSQTGVAQNNCYIWMEKRHRGPGLAPGQLYTYPARCWRKKRRLHPPEDPKLRLLEIKPEVELPLKKDGFTSESTTLEALLRGEGVEKKVDAREEESIQEIQRVLENDENVEEGNEEEDLEEDIPKRKNRTRGRARGSAGGRRRHDAASQEDHDKPYVCDICGKRYKNRPGLSYHYAHTHLASEEGDEAQDQETRSPPNHRNENHRPQKGPDGTVIPNNYCDFCLGGSNMNKKSGRPEELVSCADCGRSAHLGGEGRKEKEAAAAARTTEDLFGSTSESDTSTFHGFDEDDLEEPRSCRGRRSGRGSPTADKKGSC
notes: Zinc finger protein DPF3, isoform DPF3a, cDNA subcloned into pGEX-6P-1; Expressed with 0.1 mM ZnSO4; also called DPF3a-FL; full-length DPF3a proteins; source: E. coli BL21 (DE3)-RIL, purified (Glutathione Sepharose 4B, 3C protease, Superdex 200)

Columns and labels:
[1] = target: B2; assay: pull-down; 1.5 nmol GST-tagged DPF3a or SNIP1 construct on Glutathione Sepharose 4B beads, 2 nmol SNIP1 1-240 or full-length DPF3a added, 4 °C 2 h; 20 mM Tris pH 7.5, 100 mM NaCl, 5 mM β-mercaptomethanol; washes with 0.5% Triton X-100; SDS-PAGE; settings: both partners purified
[2] = target: T1, GST-tagged full-length SNIP1 (recombinant) (human, UniProt Q8TAD8 1-396); assay: as above; settings: both partners purified
T1 construct: also called SNIP1-FL; source: E. coli BL21 (DE3)-RIL, purified (Glutathione Sepharose 4B, Superdex 200)
T1 sequence (looked up): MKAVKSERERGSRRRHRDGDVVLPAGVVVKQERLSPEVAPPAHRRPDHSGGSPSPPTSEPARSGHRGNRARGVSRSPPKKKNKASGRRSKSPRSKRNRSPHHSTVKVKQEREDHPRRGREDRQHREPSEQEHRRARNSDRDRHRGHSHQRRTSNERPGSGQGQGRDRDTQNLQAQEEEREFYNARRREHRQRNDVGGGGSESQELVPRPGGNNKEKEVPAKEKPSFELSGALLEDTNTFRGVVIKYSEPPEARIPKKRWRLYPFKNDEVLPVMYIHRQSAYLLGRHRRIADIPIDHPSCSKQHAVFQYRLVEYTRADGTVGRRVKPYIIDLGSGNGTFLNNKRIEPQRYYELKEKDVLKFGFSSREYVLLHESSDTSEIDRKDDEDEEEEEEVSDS

B1: GST-tagged SNIP1 N-terminus (1-240) (recombinant) (domain or fragment, human, UniProt Q8TAD8 1-240, looked up)
chain: MKAVKSERERGSRRRHRDGDVVLPAGVVVKQERLSPEVAPPAHRRPDHSGGSPSPPTSEPARSGHRGNRARGVSRSPPKKKNKASGRRSKSPRSKRNRSPHHSTVKVKQEREDHPRRGREDRQHREPSEQEHRRARNSDRDRHRGHSHQRRTSNERPGSGQGQGRDRDTQNLQAQEEEREFYNARRREHRQRNDVGGGGSESQELVPRPGGNNKEKEVPAKEKPSFELSGALLEDTNTFR
notes: also called SNIP1-IDR; source: E. coli BL21 (DE3)-RIL, purified (Glutathione Sepharose 4B, Superdex 200)
B1: binds [1].

B2: binds [2].
